± gives the standard deviation of the averaged measurements.
B1: library; a variant is named by its letters at N, in order (parent)
chain: GCUGUCACCGGUGCUUGGUACGUUAUAUUCAGCCGGUCUGAUGAGUCUNNNNNNAGACGAAACAGC

Key:
(6R,S)-folinic acid [1] = variants of: B1; assay: FACS-Seq fitted mean relative fluorescence mCherry/BFP without ligand (log10 relative fluorescence); HEK293T overexpressing SLC46A1; higher = higher reporter protein expression; details: without (6R,S)-folinic acid; ligand present: no
Outline: (§1)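 Sorting into 6 bins by mCherry/BFP followed 48 h of incubation with or without ligand. The cells were enriched HEK293T libraries lentivirally bearing an mCherry reporter with the ribozyme switch and an EF1α-BFP marker, and bin genomic DNA was PCR-amplified, barcoded and sequenced on MiSeq. Fluorescence is the fitted normal mean of the bin counts. Means were fitted on log10(mCherry/BFP), scaled to five spiked-in control ribozymes.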

(6R,S)-folinic acid [2] = variants of: B1; assay: normalized RNA/DNA level without ligand (relative to sTRSVctl = 100) (log10 (% of sTRSVctl)); HEK293T overexpressing SLC46A1; higher = less ribozyme self-cleavage, higher mRNA level; details: without (6R,S)-folinic acid; ligand present: no
Outline: (§2)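 HEK293T cells received ligand, where used, 1 h before being transfected with 4 µg per 6-well well of library plasmids encoding reporter-linked ribozyme switches. After 72 h, RNA was extracted with EDTA and sequenced. RNA level was derived from RNA reads per DNA read, normalized to a spiked-in non-cleaving sequence or the top sequences, then scaled and log-transformed. Values were ×100 then log10, the top set was 25 sequences, and the minimum was 100 DNA reads.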

(6R,S)-folinic acid [3] = variants of: B1; assay: FACS-Seq fitted mean relative fluorescence mCherry/BFP with ligand (log10 relative fluorescence); HEK293T overexpressing SLC46A1; ligand concentration (+) FACS-Seq: 6 mM; higher = higher reporter protein expression; details: with (6R,S)-folinic acid; ligand present: yes
Outline: as §1

(6R,S)-folinic acid [4] = variants of: B1; assay: normalized RNA/DNA level with ligand (relative to sTRSVctl = 100) (log10 (% of sTRSVctl)); HEK293T overexpressing SLC46A1; ligand concentration (+) RNA-Seq: 6 mM; higher = less ribozyme self-cleavage, higher mRNA level; details: with (6R,S)-folinic acid; ligand present: yes
Outline: as §2

| Variant | FACS-Seq fitted mean (log10) ((6R,S)-folinic acid [1]) | normalized RNA/DNA level without ligand (log10) ((6R,S)-folinic acid [2]) | FACS-Seq fitted mean (log10) ((6R,S)-folinic acid [3]) | normalized RNA/DNA level with ligand (log10) ((6R,S)-folinic acid [4]) |
| --- | --- | --- | --- | --- |
| ACUUAG | 0.58 ± 0.02 | 1.93 ± 0.0033 | 0.402 ± 0.071 | 1.978 ± 0.0025 |
| CCUAAU | 0.239 ± 0.0063 | 2.041 ± 0.011 | 0.0269 ± 0.022 | 2.07 ± 0.067 |
| CCUAAG | 0.536 ± 0.044 | 1.9074 ± 0.0005 | 0.332 ± 0.0073 | 2.002 ± 0.018 |
| UCGAAG | -0.0439 ± 0.018 | 1.74 ± 0.041 | -0.0157 ± 0.066 | 1.991 ± 0.0057 |
| UCGAAU | 0.347 ± 0.072 | 1.932 ± 0.013 | 0.308 ± 0.13 | 2 ± 0.044 |
| GCUUCA | 0.3988 ± 0.0025 | 2.04 ± 0.033 | 0.641 ± 0.1 | 2.06 ± 0.031 |
| ACGCCU | -0.804 ± 0.062 | 2.07 ± 0.011 | -1.68 ± 0.58 | 2.06 ± 0.046 |
| ACGACA | -0.43 ± 0.011 | 2.015 ± 0.0095 | -0.351 ± 0.72 | 2.045 ± 0.019 |
| ACGACG | 0.261 ± 0.092 | 1.93 ± 0.021 | 0.213 ± 0.08 | 2.0313 ± 0.0019 |
| ACGACC | 0.728 ± 0.055 | 2.066 ± 0.015 | 0.641 ± 0.33 | 2.083 ± 0.02 |
| GCUCUG | 0.433 ± 0.072 | 1.99 ± 0.024 | 0.646 ± 0.038 | 2.03 ± 0.037 |
| UCUCGU | 0.148 ± 0.028 | 1.9916 ± 0.0016 | -0.0695 ± 0.1 | 2.012 ± 0.013 |
| UCUCGA | 0.597 ± 0.079 | 2.071 ± 0.012 | 0.413 ± 0.029 | 2.03 ± 0.021 |
| ACUGAG | 0.198 ± 0.044 | 1.7978 ± 0.0006 | 0.446 ± 0.082 | 2 ± 0.023 |
| ACUGAA | 0.265 ± 0.035 | 1.953 ± 0.0034 | 0.375 ± 0.18 | 1.981 ± 0.0063 |
| GCGAGC | 0.231 ± 0.076 | 2.014 ± 0.01 | 0.217 ± 0.14 | 2.036 ± 0.014 |
| GCGAGA | 0.0695 ± 0.067 | 1.996 ± 0.016 | 0.197 ± 0.13 | 2.03 ± 0.018 |
| GCUAAU | 0.513 ± 0.029 | 1.986 ± 0.0026 | 0.516 ± 0.027 | 2.02 ± 0.022 |

Reference: the supplement of paper PMC6757056
